Source: patent publication US7074904

Columns and labels:
[1] = biological target: full-length murine I-A^d/OVA 323-339 MHC class II fusion complex (pJRS165.1) expressed on NSO cells (mouse; chicken) (UniProt P04228); assay: flow cytometry, FITC-conjugated isotype control antibody 1:100 on clone NSO/IA^d/OVA.B5
[2] = biological target: full-length murine I-A^d/OVA 323-339 MHC class II fusion complex (pJRS165.1) expressed on NSO cells (mouse; chicken) (UniProt P04228); assay: flow cytometry, FITC-conjugated isotype control antibody 1:100 on clone NSO/IA^d/OVA.B2
[3] = biological target: I-A^d on NSO parental cells (untransfected negative control, H-2^d background) (mouse) (UniProt P04228); assay: flow cytometry, FITC-conjugated isotype control antibody 1:100 on untransfected NSO cells (negative control)
[4] = biological target: full-length murine I-A^d/OVA 323-339 MHC class II fusion complex (pJRS165.1) expressed on NSO cells (mouse; chicken) (UniProt P04228); assay: flow cytometry, FITC-conjugated isotype control antibody 1:100 on clone NSO/IA^d/OVA.A4
[5] = biological target: full-length murine I-A^d/OVA 323-339 MHC class II fusion complex (pJRS165.1) expressed on NSO cells (mouse; chicken) (UniProt P04228); assay: flow cytometry, FITC-conjugated isotype control antibody 1:100 on clone NSO/IA^d/OVA.B4
[6] = biological target: murine class II MHC molecule I-A^d on A20.1-11 cells (mouse) (UniProt P04228); assay: flow cytometry, FITC-conjugated isotype control antibody 1:100 on A20.1-11 cells (positive control)

- peak channel fluorescence [1]: 10 channel
- peak channel fluorescence [2]: 14 channel
- peak channel fluorescence [3]: 5 channel
- peak channel fluorescence [4]: 34 channel
- peak channel fluorescence [5]: 11 channel
- peak channel fluorescence [6]: 5 channel
Substance: FITC-conjugated anti-IA^k antibody (Pharmingen), isotype matched irrelevant antibody
